Measurements taken from PMC8247607.

T1: MSL2 CXC domain (CXCvir) (Drosophila virilis, UniProt O76733 514-567)
T1 sequence: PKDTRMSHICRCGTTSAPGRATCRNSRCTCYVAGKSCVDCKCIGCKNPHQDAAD


Biological target: T1, MSL2 CXC domain (CXCvir)
Test: NMR 1H-15N HSQC titration

| Binder | Kd |
| --- | --- |
| S12 (dsDNA) DNA 1: ATGAGCGAGATG DNA 2: CATCTCGCTCAT | 2800 nM |
| S12 mutant (dsDNA) DNA 1: ATGAAAAAAATG DNA 2: CATTTTTTTCAT | 2400 nM |
